Consider 26 molecules from US20220135638A1 (Takeda / Millennium, published 2022).

The target of assay [1] is T1, full-length human GLP-1R (GenBank NM_002062) with an N-terminal FLAG tag on HEK-293T cells (human), P43220.
T1 chain: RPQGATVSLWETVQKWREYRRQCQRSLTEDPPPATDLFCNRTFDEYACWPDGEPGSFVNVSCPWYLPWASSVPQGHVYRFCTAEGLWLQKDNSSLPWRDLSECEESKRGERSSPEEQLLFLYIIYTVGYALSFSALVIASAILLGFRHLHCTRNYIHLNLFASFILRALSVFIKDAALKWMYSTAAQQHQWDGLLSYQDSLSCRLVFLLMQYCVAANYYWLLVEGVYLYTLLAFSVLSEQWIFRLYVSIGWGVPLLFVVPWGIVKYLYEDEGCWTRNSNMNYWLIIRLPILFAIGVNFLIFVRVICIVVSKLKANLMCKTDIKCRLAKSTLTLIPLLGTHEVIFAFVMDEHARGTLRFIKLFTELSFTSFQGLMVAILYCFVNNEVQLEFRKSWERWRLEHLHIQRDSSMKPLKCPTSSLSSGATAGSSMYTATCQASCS
Briefly: cell-based or functional assay.

In assay [2] the target is T2, full-length human GIPR (GenBank NM_000164) with an N-terminal FLAG tag on HEK-293T cells (human), P48546.
T2 chain: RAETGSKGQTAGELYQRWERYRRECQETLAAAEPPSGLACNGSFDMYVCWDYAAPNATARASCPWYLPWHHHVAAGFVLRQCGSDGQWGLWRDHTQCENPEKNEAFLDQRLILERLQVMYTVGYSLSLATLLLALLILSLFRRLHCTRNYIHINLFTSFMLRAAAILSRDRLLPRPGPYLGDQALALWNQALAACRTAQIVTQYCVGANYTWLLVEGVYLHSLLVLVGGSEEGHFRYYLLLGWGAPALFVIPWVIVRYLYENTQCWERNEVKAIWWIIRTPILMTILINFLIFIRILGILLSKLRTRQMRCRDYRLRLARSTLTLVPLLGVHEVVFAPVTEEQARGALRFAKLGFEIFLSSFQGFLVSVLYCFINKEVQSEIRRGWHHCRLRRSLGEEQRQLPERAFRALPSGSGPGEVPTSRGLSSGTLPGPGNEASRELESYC
The assay is described as follows: cell-based or functional assay.

Numbered stars: 1 amine (or outer) side, 2 acyl side, 3 side chain; on linkers, the order of the positions; unused ones are H or OH. Square brackets hold non-standard residues; d marks the D form. Primed or numbered codes have the meaning given here. Side chains are listed from the residue outwards. Ends that are not written are not given here. * marks the point of attachment. C20 diacid = O=C(O)CCCCCCCCCCCCCCCCCCC(=O)*; C18 diacid = O=C(O)CCCCCCCCCCCCCCCCC(=O)*; C16 diacid = O=C(O)CCCCCCCCCCCCCCC(=O)*; γGlu = O=C(O)[C@H](CCC(=O)[*:2])N[*:1]; Iva = CC[C@](C)(N)C(=O)O; PEG3′ = not defined here; Abu = CC[C@H](N)C(=O)O; Aib = CC(C)(N)C(=O)O

With Y[Aib]EGTFISDYSIALDR[Aib]HQ[Aib]NFVNW[Iva]LAQRPSSGAK([γGlu-γGlu-C18 diacid])PPS (ends and bridges not checked) [Compound No. 552], in assay [1], the GLP EC50 was > 1 µM. The same molecule gave a GIP EC50(pM) in assay [2] of 1.12 pM.

With Y[Aib]EGTFISDYSIALDR[Aib]HQ[Aib]NFVNW[Iva]LAQRPSSGAPPPK([Abu-γGlu-C18 diacid]) (ends and bridges not checked) [Compound No. 545], the GLP EC50 in assay [1] was > 1 µM. In addition, in assay [2], the GIP EC50(pM) was determined as 0.43 pM.

Take Y[Aib]EGTFISDYSIALDR[Aib]HQ[Aib]NFVNW[Iva]LAQRPSK([γGlu-γGlu-C18 diacid])GAPPPS (ends and bridges not checked) [Compound No. 549]: in assay [1], the GLP EC50 was > 1 µM. The GIP EC50(pM) in assay [2] stood at 0.85 pM.

Regarding Y[Aib]EGTFISDYSIALDR[Aib]HQ[Aib]NFVNW[Iva]LAQRPSSGAPPPK([γGlu-γGlu-C18 diacid]) (ends and bridges not checked) [Compound No. 555], the GLP EC50 in assay [1] was > 1 µM. The same molecule had a GIP EC50(pM) in assay [2] of 0.97 pM.

Regarding Y[Aib]EGTFISDYSIALDR[Aib]HQ[Aib]NFVNW[Iva]LAQRPSSK([γGlu-γGlu-C18 diacid])APPPS (ends and bridges not checked) [Compound No. 550], the GLP EC50 in assay [1] is > 1 µM. This molecule had a GIP EC50(pM) in assay [2] of 0.83 pM.

Regarding Y[Aib]EGTFISDYSIALDR[Aib]HQ[Aib]NFVNW[Iva]LAQRPSSGAPK([Abu-γGlu-C18 diacid])PS (ends and bridges not checked) [Compound No. 543], in assay [1], the GLP EC50 was > 1 µM. In addition, in assay [2], the GIP EC50(pM) was determined as 0.72 pM.

In the case of Y[Aib]EGTFISDYSIALDR[Aib]HQ[Aib]NFVNW[Iva]LAQRPSSGAPK([γGlu-γGlu-C18 diacid])PS (ends and bridges not checked) [Compound No. 553], the GLP EC50 in assay [1] was > 1 µM. Besides, the GIP EC50(pM) in assay [2] came out at 1.08 pM.

As to Y[Aib]EGTFISDYSIALDR[Aib]HQ[Aib]NFVNW[Iva]LAQRPSSK([Abu-γGlu-C18 diacid])APPPS (ends and bridges not checked) [Compound No. 540], the GLP EC50 in assay [1] was > 1 µM. In assay [2], this molecule registered a GIP EC50(pM) of 3.01 pM.

For Y[Aib]EGTFISDYSIALDR[Aib]HQ[Aib]NFVNW[Iva]LAQRK([γGlu-γGlu-C18 diacid])SSGAPPPS (ends and bridges not checked) [Compound No. 547], the GLP EC50 in assay [1] is > 1 µM. This molecule also had a GIP EC50(pM) in assay [2] of 0.41 pM.

For Y[Aib]EGTFISDYSIALDR[Aib]HQ[Aib]NFVNW[Iva]LAQRPSSGAPPK([PEG3′-γGlu-C18 diacid])S (ends and bridges not checked) [Compound No. 531], the GLP EC50 in assay [1] was > 1 µM. The molecule also displayed a GIP EC50(pM) in assay [2] of 1.02 pM.

Molecule Y[Aib]EGTFISDYSIALDR[Aib]HQ[Aib]NFVNW[Iva]LAQRK([PEG3′-PEG3′-C16 diacid])SSGAPPPSR (ends and bridges not checked) [Compound No 911] came in with a GLP EC50 in assay [1] of 0.0933 µM. Moreover, in assay [2], the GIP EC50(pM) amounted to 0.8 pM.

For the molecule Y[Aib]EGTFISDYSIALDR[Aib]HQ[Aib]NFVNW[Iva]LAQRPSSGAK([Abu-γGlu-C18 diacid])PPS (ends and bridges not checked) [Compound No. 542], in assay [1], the GLP EC50 is > 1 µM. The GIP EC50(pM) in assay [2] was determined as 1.21 pM.

As for Y[Aib]EGTFISDYSIALDR[Aib]HQ[Aib]NFVNW[Iva]LAQRPSSGAPPPK([PEG3′-γGlu-C20 diacid]) (ends and bridges not checked) [Compound No. 535], the GLP EC50 in assay [1] is > 1 µM. In addition, in assay [2], the GIP EC50(pM) came to 1.54 pM.

As for Y[Aib]EGTFISDYSIALDR[Aib]HQ[Aib]NFVNW[Iva]LAQRPSSGK([Abu-γGlu-C18 diacid])PPPS (ends and bridges not checked) [Compound No. 541], in assay [1], the GLP EC50 is > 1 µM. The molecule further displayed a GIP EC50(pM) in assay [2] of 0.73 pM.

As to Y[Aib]EGTFISDYSIALDR[Aib]HQ[Aib]NFVNW[Iva]LAQRPSSGAPPK([PEG3′-γGlu-C16 diacid])S (ends and bridges not checked) [Compound No. 530], in assay [1], the GLP EC50 is > 1 µM. This molecule also yielded a GIP EC50(pM) in assay [2] of 0.36 pM.

Regarding Y[Aib]EGTFISDYSIALDR[Aib]HQ[Aib]NFVNW[Iva]LAQRPSSGAPPK([γGlu-γGlu-C18 diacid])S (ends and bridges not checked) [Compound No. 554], the GLP EC50 in assay [1] was > 1 µM. Besides, in assay [2], the GIP EC50(pM) was determined as 0.82 pM.

For the molecule Y[Aib]EGTFISDYSIALDR[Aib]HQ[Aib]NFVNW[Iva]LAQRPK([Abu-γGlu-C18 diacid])SGAPPPS (ends and bridges not checked) [Compound No. 538], the GLP EC50 in assay [1] was > 1 µM. In assay [2], this molecule displayed a GIP EC50(pM) of 1.8 pM.

Turning to Y[Aib]EGTFISDYSIALDR[Aib]HQ[Aib]NFVNW[Iva]LAQRPSSGAPK([PEG3′-γGlu-C20 diacid])PS (ends and bridges not checked) [Compound No. 529], the GLP EC50 in assay [1] is > 1 µM. In assay [2], the GIP EC50(pM) turned out to be 1.3 pM.

On to Y[Aib]EGTFISDYSIALDR[Aib]HQ[Aib]NFVNW[Iva]LAQRPSSGAPPPK([PEG3′-γGlu-C18 diacid]) (ends and bridges not checked) [Compound No. 534], for which, in assay [1], the GLP EC50 was > 1 µM. Further, the GIP EC50(pM) in assay [2] was 0.81 pM.

For the molecule Y[Aib]EGTFISDYSIALDR[Aib]HQ[Aib]NFVNW[Iva]LAQRPK([γGlu-γGlu-C18 diacid])SGAPPPS (ends and bridges not checked) [Compound No. 548], the GLP EC50 in assay [1] was > 1 µM. Moreover, the GIP EC50(pM) in assay [2] worked out at 0.81 pM.

Y[Aib]EGTFISDYSIALDR[Aib]HQ[Aib]NFVNW[Iva]LAQRK([Abu-γGlu-C18 diacid])SSGAPPPS (ends and bridges not checked) [Compound No. 537]: the GLP EC50 in assay [1] is > 1 µM. For the same molecule, the GIP EC50(pM) in assay [2] turned out to be 1.32 pM.

Y[Aib]EGTFISDYSIALDR[Aib]HQ[Aib]NFVNW[Iva]LAQRPSSGAPPPK([PEG3′-γGlu-C16 diacid]) (ends and bridges not checked) [Compound No. 533] gave a GLP EC50 in assay [1] of 0.776 µM. Moreover, in assay [2], the GIP EC50(pM) was determined as 0.59 pM.

With Y[Aib]EGTFISDYSIALDR[Aib]HQ[Aib]NFVNW[Iva]LAQRPSK([Abu-γGlu-C18 diacid])GAPPPS (ends and bridges not checked) [Compound No. 539], the GLP EC50 in assay [1] was > 1 µM. Further, the GIP EC50(pM) in assay [2] stood at 2.66 pM.

Consider Y[Aib]EGTFISDYSIALDR[Aib]HQ[Aib]NFVNW[Iva]LAQRPSSGK([γGlu-γGlu-C18 diacid])PPPS (ends and bridges not checked) [Compound No. 551], for which the GLP EC50 in assay [1] was > 1 µM. In assay [2], this molecule gave a GIP EC50(pM) of 0.6 pM.

Take Y[Aib]EGTFISDYSIALDR[Aib]HQ[Aib]NFVNW[Iva]LAQRPSSGAPPK([Abu-γGlu-C18 diacid])S (ends and bridges not checked) [Compound No. 544]: in assay [1], the GLP EC50 was > 1 µM. The molecule further displayed a GIP EC50(pM) in assay [2] of 0.94 pM.

Y[Aib]EGTFISDYSIALDR[Aib]HQ[Aib]NFVNW[Iva]LAQRPSSGAPPK([PEG3′-γGlu-C20 diacid])S (ends and bridges not checked) [Compound No. 532]: the GLP EC50 in assay [1] was > 1 µM. Moreover, in assay [2], the GIP EC50(pM) stood at 2.05 pM.
